# Data from patent US11285197B2, “Mesothelin vaccines and model systems” (priority 2002, dated 2022).
# Biological target: T1, HLA-A2 (Homo sapiens, UniProt P04439, D140Y/D185E/D98H/E176V/E277Q/G131W/G231S/I119V/I121R/I166T/I218V/L300P/L318F/N151K/N90K/P208A/P217A/Q86G/Q94H/R138H/R169H/T345S)
# T1 construct: pulsing TAP deficient T2 cells that expressed the corresponding HLA class I molecule (T2-A2, T2-A3, or T2-A24 cells); endogenous in cells; host or cells: human T2 cells (TAP-deficient B/T lymphoblast hybrid), called T2-A2
# Assay: T2 peptide/MHC binding assay, T2-A2 cells, W6/32 staining, flow cytometry
# Conditions: T2-A2 cells pulsed with peptide, HLA class I antibody W6/32, flow cytometry
sequence,measurement,value
EIDESLIFY (listed as Homo sapiens),detection of HLA-A2 on the cell surface of peptide-pulsed T2-A2 cells,do not stain
